# Measurements: the supplement of paper PMC9170038
# Test system: MS2 coat protein
# Test: apparent KD of MS2 coat protein, switch ON state; designed switch direction (-1 OFF switch, 1 ON switch): 1; higher = weaker reporter binding
# Conditions: FMN input: 0 or 200 uM; Eterna round: R93 (includes R88 designs)
# Summary of the method: (§1)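 Designed RNA switches were made by on-chip transcription from Illumina sequencing clusters and then titrated with SNAP-549-labelled MS2 coat protein. Twofold steps ran from 0.7 or 1.5 nM to 3 µM, each lasting 0.8–1.5 h early and 10–20 min late, in 100 mM Tris-HCl pH 7.5, 80 mM KCl, 4 mM MgCl2, without or with constant ligand. Apparent KD is the per-design median of normalised cluster binding-curve fits.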
row,Sequence,apparent KD of MS2 coat protein
1,AAGAAACAUGAGGAUCACCCAUGUGAUAAUAUGGGAGGAUAUACAAAGACGAAAGACGAAGUAGAAGGCCUAAGAA [Garnet 47],56.3 nM
2,AAUAAAAAUAGUCAGGAUAUGAGAAAUAAGACAUGAGGAUCACCCAUGUAAUAAGUAAAAGUAAAUUAGAAGGGACAGGGUGAAA [JR_SS002_Sub019],200 nM
3,AAAAUACAUGAGGAUCACCCAUGUCCGACAAAUCAAGGAUAUGAUAGCCAAACCAAGCUGUUAGAAGGUGAAAGAA [Edengere],499 nM
4,AGGAGACAUGAGGAUCACCCAUGUGAGAAGAGGCGAGGAUAUCGAAAAAAAAAAAGAAAACGAGAAGGCGCGAGAA [salish99-SS1-014],244 nM
5,"AUAAAAGAAGCGAAGGAUAUCCAAAAUCCAACAUGAGGAUCACCCAUGUAAAGAAAGAAAAAAUGGGAGAAGGUCGCAAAGAAUA [73%, More Fisker Same State 2, D3, 11]",13.5 nM
6,AAAAAACAUGAGGAUCACCCAUGUAAAAAAAUGGGAGGAUAUACAAAAACGAAAGUCAAAGUAGAAGGCCUGAAAA [same state 5],19.3 nM
7,"AGGAAACAUGAGGAUCACCCAUGUAAAAAUAUAGGAGGAUAUGCGAAAAGAAACAAAGAAGCAGAAGGCUUAAAAA [75%, Ex sub1, 22]",13.1 nM
8,AAAAAAUAAAAAAAGGAUAUACUGCUAGAAACAUGAGGAUCACCCAUGUAACUAGCAGUAAUAAAAAAGAAGGAAAAAUAAAAAA [SS2: MS2 35],1.15 nM
9,AUAUAUAAAAGAUAGGAUAUACUAAAAUAAACAUGAGGAUCACCCAUGUAAAAAAAGAAACUCAUGUAGAAGGAUCAUAUAUAUA [ss2 7th],46.5 nM
10,GAAAAACAUGAGGAUCACCCAUGUGAAAACUUGGGAGGAUAUACUAAGACGAAAGUCGAGGUAGAAGGCCUAAAAG [Same State 1.4i (Mat - Mod of Eli - )],22.4 nM
11,AUGAAAGUAACGCAGGAUAUCCAGGAUACAACAUGAGGAUCACCCAUGUACAUACGAACGUAUAAGGAGAAGGGUGGAUGAUCUUC [ss2-3],56.7 nM

# Test system: MS2 coat protein
# Test: apparent KD of MS2 coat protein, switch OFF state (with FMN for OFF switches, without FMN for ON switches); designed switch direction (-1 OFF switch, 1 ON switch): 1; higher = weaker reporter binding
# Conditions: FMN input: 0 or 200 uM; Eterna round: R93 (includes R88 designs)
# Summary of the method: as §1
row,Sequence,apparent KD of MS2 coat protein
1,AAGAAACAUGAGGAUCACCCAUGUGAUAAUAUGGGAGGAUAUACAAAGACGAAAGACGAAGUAGAAGGCCUAAGAA [Garnet 47],114 nM
2,AAUAAAAAUAGUCAGGAUAUGAGAAAUAAGACAUGAGGAUCACCCAUGUAAUAAGUAAAAGUAAAUUAGAAGGGACAGGGUGAAA [JR_SS002_Sub019],167 nM
3,AAAAUACAUGAGGAUCACCCAUGUCCGACAAAUCAAGGAUAUGAUAGCCAAACCAAGCUGUUAGAAGGUGAAAGAA [Edengere],208 nM
4,AGGAGACAUGAGGAUCACCCAUGUGAGAAGAGGCGAGGAUAUCGAAAAAAAAAAAGAAAACGAGAAGGCGCGAGAA [salish99-SS1-014],59.9 nM
5,"AUAAAAGAAGCGAAGGAUAUCCAAAAUCCAACAUGAGGAUCACCCAUGUAAAGAAAGAAAAAAUGGGAGAAGGUCGCAAAGAAUA [73%, More Fisker Same State 2, D3, 11]",31.3 nM
6,AAAAAACAUGAGGAUCACCCAUGUAAAAAAAUGGGAGGAUAUACAAAAACGAAAGUCAAAGUAGAAGGCCUGAAAA [same state 5],172 nM
7,"AGGAAACAUGAGGAUCACCCAUGUAAAAAUAUAGGAGGAUAUGCGAAAAGAAACAAAGAAGCAGAAGGCUUAAAAA [75%, Ex sub1, 22]",20.8 nM
8,AAAAAAUAAAAAAAGGAUAUACUGCUAGAAACAUGAGGAUCACCCAUGUAACUAGCAGUAAUAAAAAAGAAGGAAAAAUAAAAAA [SS2: MS2 35],3.61 nM
9,AUAUAUAAAAGAUAGGAUAUACUAAAAUAAACAUGAGGAUCACCCAUGUAAAAAAAGAAACUCAUGUAGAAGGAUCAUAUAUAUA [ss2 7th],246 nM
10,GAAAAACAUGAGGAUCACCCAUGUGAAAACUUGGGAGGAUAUACUAAGACGAAAGUCGAGGUAGAAGGCCUAAAAG [Same State 1.4i (Mat - Mod of Eli - )],74.1 nM
11,AUGAAAGUAACGCAGGAUAUCCAGGAUACAACAUGAGGAUCACCCAUGUACAUACGAACGUAUAAGGAGAAGGGUGGAUGAUCUUC [ss2-3],48.2 nM

# Test system: MS2 coat protein
# Test: apparent KD of MS2 coat protein, switch ON state; designed switch direction (-1 OFF switch, 1 ON switch): -1; higher = weaker reporter binding
# Conditions: FMN input: 0 or 200 uM; Eterna round: R93 (includes R88 designs)
# Summary of the method: as §1
row,Sequence,apparent KD of MS2 coat protein
1,"AAAAAACAUGAGGAUCACCCAUGUGAGGAUAUGUACGAAAAUAAAUAAAAAUAAAAGUACAGAAGGCACAAAAA [66%, Wbt, 2]",35.7 nM
2,"AAAAAACAUGAGGAUCACCCAUGUAAGGAUAUGCUCGUAAGUGCGAAAGCACAAAUGAGCAGAAGGUACAAAAA [66%, Wbt, 44]",19.2 nM
3,AGAAAACAUGAGGAUCACCCAUGUGAGGAUAUGCGAAAGAAAGAAAGAAAGAAAGAAAGCAGAAGGCACAAGAA [Ex 1 Tesla 2],15.6 nM
4,AAAAAGCGAGGAUAUACAUGAGGAUCACCCAUGUAAAAAAAAAAAAAGGGAAAAAAAAGUAGAAGGCGCAAAAA [Sekhemraneferkhau Wepwawetemsaf],43.2 nM
5,GAGAGGGCAGGAUAUGCGGAGAGAGAGAGAGAGAGAGAGAGACAUGAGGAUCACCCAUGUAGAAGGGCCGAGAG [salish99-ex2-09],62.3 nM
6,AAAUUGUCAGGAUAUGUAGCAAAAGGUGAUCAAAAAAAGCUACAGAAGGGACAUGAGGAUCACCCAUGUAAAAA [Ex4: 936],242 nM
7,CUCAAGUAAGGAUAUCGAAGAAAAGAAGAGAAAGAAAAGAACGAGAAGGUACAUGAGGAUCACCCAUGUAAGAA [EteRNA is fun!],32.4 nM
8,AAAAAGUGAGGAUAUUCGGAAGGGAAAGCGCAAACCCAACCGAAGAAGGCACAUGAGGAUCACCCAUGUAAAAA [Ecls4-III 65% - Early G segment 1],30.6 nM

# Test system: MS2 coat protein
# Test: apparent KD of MS2 coat protein, switch OFF state (with FMN for OFF switches, without FMN for ON switches); designed switch direction (-1 OFF switch, 1 ON switch): -1; higher = weaker reporter binding
# Conditions: FMN input: 0 or 200 uM; Eterna round: R93 (includes R88 designs)
# Summary of the method: as §1
row,Sequence,apparent KD of MS2 coat protein
1,"AAAAAACAUGAGGAUCACCCAUGUGAGGAUAUGUACGAAAAUAAAUAAAAAUAAAAGUACAGAAGGCACAAAAA [66%, Wbt, 2]",41.2 nM
2,"AAAAAACAUGAGGAUCACCCAUGUAAGGAUAUGCUCGUAAGUGCGAAAGCACAAAUGAGCAGAAGGUACAAAAA [66%, Wbt, 44]",31 nM
3,AGAAAACAUGAGGAUCACCCAUGUGAGGAUAUGCGAAAGAAAGAAAGAAAGAAAGAAAGCAGAAGGCACAAGAA [Ex 1 Tesla 2],44.4 nM
4,AAAAAGCGAGGAUAUACAUGAGGAUCACCCAUGUAAAAAAAAAAAAAGGGAAAAAAAAGUAGAAGGCGCAAAAA [Sekhemraneferkhau Wepwawetemsaf],48.7 nM
5,GAGAGGGCAGGAUAUGCGGAGAGAGAGAGAGAGAGAGAGAGACAUGAGGAUCACCCAUGUAGAAGGGCCGAGAG [salish99-ex2-09],28.1 nM
6,AAAUUGUCAGGAUAUGUAGCAAAAGGUGAUCAAAAAAAGCUACAGAAGGGACAUGAGGAUCACCCAUGUAAAAA [Ex4: 936],359 nM
7,CUCAAGUAAGGAUAUCGAAGAAAAGAAGAGAAAGAAAAGAACGAGAAGGUACAUGAGGAUCACCCAUGUAAGAA [EteRNA is fun!],28 nM
8,AAAAAGUGAGGAUAUUCGGAAGGGAAAGCGCAAACCCAACCGAAGAAGGCACAUGAGGAUCACCCAUGUAAAAA [Ecls4-III 65% - Early G segment 1],35.2 nM
